In paper PMC3020918:

Molecular target: YFP(N)-Sso1p (S. cerevisiae) (UniProt P32867)
Experiment: split reporter

UniProt P32867, sequence (P32867 whole entry): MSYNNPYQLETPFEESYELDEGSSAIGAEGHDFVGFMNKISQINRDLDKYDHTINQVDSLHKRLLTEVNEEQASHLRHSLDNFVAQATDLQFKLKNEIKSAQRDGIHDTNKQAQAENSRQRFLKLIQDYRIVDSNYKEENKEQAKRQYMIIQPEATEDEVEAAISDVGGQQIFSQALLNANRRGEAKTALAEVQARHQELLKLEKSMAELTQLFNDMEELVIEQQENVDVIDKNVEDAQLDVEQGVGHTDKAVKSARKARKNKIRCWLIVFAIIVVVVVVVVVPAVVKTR

## Sec1p(658–724)-YFP(C) (from UniProt P30619 658-724) (domain or fragment)
  percent stronger BiFC signal than Sec1p(658–724)-Sso2p: 22%
